This note sets out measurements from patent US20250154231A1 (RQBIO COVID, published 2025).

The chains are these.
B1: Omi02 (antibody, V domains shown)
VH: EVQLVESGAEVKKPGSSVKVSCKASGGTFSSYAINWVRQAPGQGLEWMGGIIPIFRTPHYAQKFQGRVTITADESTGTAYMELSSLRSEDTAVYYCASPSCGGDCPQYLKSSKLDWYFDLWGRGTLVTVSS
VL: VIWMTQSPGTLSLSPGERATLSCRASQSVSSTYLAWYQQKPGQAPRLLIYGASSRATGIPDRFSGSGSGTDFTLTISRLEPEDFAVYYCQHYGSSPLTFGQGTRLEIK
B2: Omi32 (antibody, V domains shown)
VH: EVQLVESGGGVVQPGRSLRLSCAASGFTFSNYGMHWVRQAPGKGLEWVAVYWYDGGNKFYADSVKGRFTISRDNSKNTLYLQMNSLRVEDTAVYYCARDTAPPDYWGQGTLVTVSS
VL: AIRMTQSPGTLSLSPGERATLSCRASQSISSSFLAWYQQKPGQAPRLLIYGASSRATGIPDRFSGSGSGTDFTLTISRLEPEDFAVYYCQQYGTSPRLTFGGGTKVDIK
B3: Omi28 (antibody, V domains shown)
VH: EVQLVESGGGLVQPGGSLRLSCAASGVIVSSNYMSWVRQAPGKGLQWVSVIYSGGSTFYADSVKGRFTISRDNSKNTLYLQMNSLRAEDTAVYYCARDLLEAGGTDYWGQGTLVTVSS
VL: DVVMTQSPGTLSLSPGERATLSCRASQFIGSSYLAWYQQKPGQAPRLLIYGASNRATGVPDRFSGSGSGTDFTLTISRLEPEDFAVYYCQQYGSAPGTFGQGTKVEIK
B4: Omi31 (antibody, V domains shown)
VH: EVQLVQSGAEVKKPGSSVKVSCKASGGTFSSYGISWVRQAPGLGLEWMGGVIPILSAKHYAQRFQGRVTITADKSTGTAYMELSSLRSEDTAVYYCARDILHHDDLWGRFYYDGMDVWGQGTTVTVSS
VL: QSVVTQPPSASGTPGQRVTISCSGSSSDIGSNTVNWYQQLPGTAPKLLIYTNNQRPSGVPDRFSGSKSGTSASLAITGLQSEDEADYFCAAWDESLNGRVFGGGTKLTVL
B5: Omi24 (antibody, V domains shown)
VH: QVQLVESGAEVKKPGSSVKVSCKASGGTFSSHGVIWVRQAPGQGLEWMGGIIPIFPTANYAQKFQGRVTITADKPSNTAYMELSSLRSEDTAVYYCARARGEHDSVWGSFHYYFDYWGQGTLVTVSS
VL: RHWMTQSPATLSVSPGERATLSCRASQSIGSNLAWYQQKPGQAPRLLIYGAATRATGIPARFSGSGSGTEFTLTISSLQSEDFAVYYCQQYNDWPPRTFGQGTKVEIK
B6: Omi30 (antibody, V domains shown)
VH: EVQLVESGAEVKKPGSSVKVSCKASGGTFSRYAISWVRQAPGQGLEWMGGIIPIFDATNYAQKFHDRVTITADKSASTAYMELSSLRSDDTAVYYCARERTYCSGGTCYGGYFYYGMDVWGQGTTVTVSS
VL: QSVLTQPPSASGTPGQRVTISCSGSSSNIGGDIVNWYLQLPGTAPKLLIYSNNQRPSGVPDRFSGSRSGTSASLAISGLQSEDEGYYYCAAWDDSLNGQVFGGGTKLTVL
B7: Omi34 (antibody, V domains shown)
VH: QVQLVQSGAEVKKPGSSVKVSCKASGGTFSSYGIRWVRQAPGQGLEWMGGIIPVFGATNYAQKFQDRVTITADKSTATAYMELSSLKSDDTAVYFCARDALSASGWTGPFDSWGQGTLVTVSS
VL: QSVLTQPPSVSGAPGQRVTISCTGSSSNIGADYDVHWYQQLPGAAPKLLIYGNNNRPSGVPDRFSGSKSGTSASLAITGLQAEDEADYYCQSYDSSQNAFYVFGTGTKVTVL
B8: Omi38 (antibody, V domains shown)
VH: QVQLVESGAEVKKPGSSVKVSCKASGGNFNMYTISWVRQAPGRGLEWMGRFIPIANKANYAQNFPGRVTITADKSTSTVYMELRSLTSDDTAVYYCARSGSYDAFDVWGQGTMVTVSS
VL: AIRMTQSPSTLSASVGDRVTITCRASQTINSWLAWYQQKPGKAPKLLIYDASNLESGVPSRFSGSGSGTEFTLTISSLQPDDFATYYCQQYESYSPITFGQGTRLEIK
B9: Omi20 (antibody, V domains shown)
VH: EVQLVESGGGLVQPGGSLRLSCEASEITVSSNYMNWVRQAPGKGLEWVSVLFAGGTTYYADSVKGRFTISRDNSKNTLYLQMNTLRIEDTAIYYCARDLVAYGVDVWGQGTTVTVSS
VL: AIQMTQSPSFLSASVGDRVTITCRASQGISGDLAWYQQKPGKAPKLLIYAASTLQSGVPSRFSGSGSGTEFTLTISSLQPEDFATYYCQHLNSYPLTFGGGTKVEIK
B10: Omi36 (antibody, V domains shown)
VH: EVQLVESGGGVVQPGGSLRLSCAASGIIVSANYMTWVRQAPGKGLEWVSVIYPGGSTFYADSVKGRFTISRDNSKNTLYLQMNSLRVEDSAVYYCARDLELAGFNDYWGQGTLVTVSS
VL: DIVMTQSPGTLSLSPGERATLSCRTSQSVSSNYLAWYQQKPGQAPRLLIYGASSRATGIPDRFSGSGSGTDFTLTISRLEPEDFAVYYCQQFGSSPRYTFGQGTKVEIK
B11: Omi23 (antibody, V domains shown)
VH: QVQLQESGPGLVKSSQTLSLTCTVSGDSISRGGYYWSWIRQHPGKGLEWIGSIYYSGSTYYNPSLKSRFTISVDTSKNQFSLKLSSVTAADTAVYHCAREIGFLDYWGQGTLVTVSS
VL: AIQMTQSPSSLSASVGDRVTITCRASQAISNSLAWYQQKPGKAPKLLLYAASTLESGVPSRFSGSGSGTDFTLTISSLQPEDFATYFCQQYYSTPPRTFGQGTKVDIK
B12: Omi25 (antibody, V domains shown)
VH: QVQLVESGGGLVQPGRSLRLSCAASGFTFDDYAMHWVRQVPGKGLEWVSGISWNSGSIVYADFVKGRFTIARDNAKNSLFLQMNSLRAEDTALYYCAKSTALRHQYYYGMDVWGQGTTVTVSS
VL: AIQMTQSPSSLSASVGDRVTITCRTSQTISSYLNWYQQKPGKAPKLLIYDASSLQSGVPSRFSGSGYGTDFTLTISSLQPEDFATYFCQQSYNTPYAFGQGTKVEIK
B13: Omi35 (antibody, V domains shown)
VH: QVQLVESGGGLVQPGRSLRLSCAASGFTFDDYAMHWVRQAPGKGLEWVSGSTWNSGTIDYADSVKGRFTISRDNAKNSLYLQMNSLRAEDTALYYCAKDRFRKGCSSTGCYKENYGMDVWGQGTTVTVSS
VL: QSVVTQPPSVSVAPGQTARITCGGTNIGSKSVHWYQQKPGQAPVLVVYDDSDRPSGIPERFSGSNSGNTATLTITWVEAGDEADYYCQVWDSSSDNVLFGGGTKLTVL
B14: Omi29 (antibody, V domains shown)
VH: QVQLVESGGGLVQPGGSLRLSCAASGLIVSRNYMSWVRQAPGKGLEWVSLIYAGGSTFYSDSVKGRFTISRHSSENTLFLQMNSLRAEDTAVYYCARDLVHYGMDVWGQGTTVTVSS
VL: NFMLTQPASVSGSPGQSITISCTGTSSDVGGYNYVSWYQQHPGKAPKLMIYDVSNRPSGVSNRFSGSNSGNTASLTISGLQAEDEADYYCSSYTSGSTWVFGGGTKLTVL
B15: Omi27 (antibody, V domains shown)
VH: EVQLLESGGGLVQPGGSLRLSCVASGLTVSSNYMSWVRQAPGKGLEWVSIIYPGGTTYYADSVKGRFTTSRDKSKNTLYLQMNSLRAEDTAVYYCARDLAVAGGMDVWGQGTTVTVSS
VL: EIVMTQSPSSLSASVGDRVTITCRASQGIGNDLGWYQQKPGKAPKVLIYAASNLQSGVPSRFSGSGSGTDFTLTISSLQPEDFATYYCLQDSNYPYTFGQGTKVEIK
B16: Omi26 (antibody, V domains shown)
VH: QVQLVQSGTEVKKPGASVKVSCKASDYTFTRFGIIWVRQAPGQGLEWMGQINPYNGNTDYAQKFQGRVTLTTDTSTNTAYMELRSLRSDDTAVYYCARSAGSPTGLDYWGQGTLVTVSS
VL: QSVVTQPPSVSEAPRQRVTISCSGSNSNIGNNAVNWYQQLPGKAPKLLVYYDDLLPSGVSDRFSGSKSGTSASLAISGLQSEDKADYYCAAWDDSLNALVFGGGTKLTVL

The test addresses SARS-CoV-1 S protein (SARS-CoV-1, UniProt P59594 14-1195). In words: ELISA. For orientation: In an ELISA, binding on a coated surface is turned into a signal by an enzyme label.
Turning to B1, the binding result was “no binding”.

For the molecule B2, the binding result is “no binding”.

Consider B3, for which the binding result is recorded as “no binding”.

As to B4, the binding result is “no binding”.

In the case of B5, the binding result is recorded as “no binding”.

As to B6, the binding result is listed as “no binding”.

Turning to B7, the binding result is “no binding”.

As for B8, the binding result is “no binding”.

As for B9, the binding result is reported as “no binding”.

In the case of B10, the binding result is reported as “no binding”.

For B11, the binding result is listed as “no binding”.

B12: the binding result is “no binding”.

On to B13, for which the binding result was “no binding”.

Turning to B14, the binding result is recorded as “no binding”.

Consider B15, for which the binding result was “no binding”.

As to B16, the binding result is recorded as “no binding”.
